Measurements reported in patent publication US7220822.

Biological target: CD80-Ig (extracellular domain of CD80 fused with the constant region of mouse IgG1 heavy chain) (mouse)
Assay: SPR, CD28-Ig (187 nM to 12 µM) over CD80-Ig captured by anti-mouse IgG1 Fc

koff: 0.563 s⁻¹ | kon: 138000 M⁻¹ s⁻¹
Substance: CD28-Ig (Fc fusion)
